# Reference: the DeepSol protein solubility set
# Experiment: soluble on expression in E. coli; label from the status in PepcDB or PDB records
row,Sequence,soluble on expression in E. coli
1,SLSPPVVMSRMFGAQLFNGTSADSGATVGFNPDYILNPGDSIQVRLWGAFTFDGALQVDPKGNIFLPNVGPVKVAGVSNSQLNALVTSKVKEVYQSNVNVYASLLQAQPVKVYVTGFVRNPGLYGGVTSDSLLNYLIKAGGVDPERGSYVDIVVKRGNRVRSNVNLYDFLLNGKLGLSQFADGDTIIVGPRQHTFSVQGDVFNSYDFEFRESSIPVTEALSWARPKPGATHITIMRKQGLQKRSEYYPISSAPGRMLQNGDTLIVSTDRYAGTIQVRVEGAHSGEHAMVLPYGSTMRAVLEKVRPNSMSQMNAVQLYRPSVAQRQKEMLNLSLQKLEEASLSAQSSTKEEASLRMQEAQLISRFVAKARTVVPKGEVILNESNIDSVLLEDGDVINIPEKTSLVMVHGEVLFPNAVSWQKGMTTEDYIEKCGGLTQKSGNARIIVIRQNGAAVNAEDVDSLKPGDEIMVLPKYESKNIEVTRGISTILYQLAVGAKVILSL,soluble
2,SLTDRLERKLAIAANQDKADLLIKNGQIVDVFQLETFEGDVVIADGEIVAISDPGTYEAHEEVDAKGAFIAPAFIDGHVHIESSMVAPEQFAKVVVPHGVTTVIADPHEIANVAGVQGVEYMLDASEGIPLDVKMMVPSCVPATPFEHSGARLTAEEVAELFRDPRIFGLGEVMDYPAVLTRDQEMMAKLKAAHSEGRIVDGHGAGLDSVALNAYTAAGIGNDHEAVTPEEAKARLQRGMYLLIREGTAAKDFDALMKAITPMNSRRALFVTDDKHLDELVEEGSIDHHVRKAIQIGVNPLQAIQMASLNAAECFKLAKKGAIAPGFTADLLFIEDLQSLAITHVFKNGTCVAKNGKLIVPIRETVQPPQRLLESVNMKLVTKEQLELSLQSDEEAHLIQIQPGSIVTKHIREKVAVKDGVFIPSVARDQLKLVVAERHHKRGTVGVGIVKGFGLTKGAIATTVAHDSHNIVAVGTNDEDLLAAIKELENIQGGMTIVKDGKVLVSLPLTIGGLMSDQSYDVVCEQIKSVDAAIGALGFVGDFNPFLTLSFLALPVIPEIKLTDQGLFDVTSFSFIDQQVYAEETN,soluble
3,SLTNKLESNYNKIACNIFYDKYKNANEIIKALKLIDIDDNDFKKSFSIYSKKATSGNDEKIVKFLLFNIERHLSGGICDEQIATIEHILPSSLNDEKVHKLGNYILLEAKYNQQLKNKNFKEKIDIYSKSNFKLAQYVAENFKTWDTKSIDQYQNFLAKQALALWKF,soluble
4,SLVDLAADILVADAHMHTNPTRGLGAREVARRFRREGGWFAALLTLTTWSYGLAPTGVEAYRRMYEIHLRECRAAREEGLRVACFAGIHPAEVDRMIDKHRQPPEKALETALEAVEVLRRLCREGAIDGVGEVGRQHYRTSPLRVAIAEVVLEEAAAAALEEGCLLQLHLENEGPATVETVDRILRRAGATGARRGMVIFHHATLRVAKEAVARGYNATIPGVPKLLEHAAANEPPDYMVESDYLDDPARPGAVVEPWKMAQKLREIASRTPETREWVRRTNIDLVERVFQASPP,not soluble
5,SLVIIYDGDSYGISKRIDYMLNSTTSSGKRTGILAIGAHPDDIELGCGASLSYYSNEKVYIISVVMTPGCCGAEYIDRHKESQEALNMLGCNKLIPLNFEDTRLYLQIKEMISSLEYIIENETPQDVEITRVYTMNNTDRHQDHIAVYQASMVACRYIPQILGYETPSTCLSFLPQVFESVDEVHFNKKILALQKHKSQIHRRYIQPEYIIAQAKFRGQQVSHSMCEGFVVHKMVL,soluble
6,SLVTLGEGFEKARLTRFLEKFGGNEGSQFLYLKDYGHFYYQEEGEDQVLFGFQMKFNKCFVLADPIGQREKWTAATLAFMDQADLLGYQLVFYRISEEYVMNLHDCGFEFMKVGEEGLIQFDEPSTVNQTAWTETVTEKIAAEAADFQFEFYPETISDALYQELERVSADWSRNQKERYFIGGRLDPEYLKCSSVGLVRQKQTVIGFITGKEMEKGKSISYDLLRIRSDAPAFTREYLFTHFIETYQQQGYQLIDIGMAPLANVGESKYSFLKERFVNIFYKYSYQIYAFQDTRKRKEQYVTSWQPRYFAYPKRTSVLFAFVQLSLLITKGRHQSVSLVEEAMTEI,not soluble
7,SMFEIKKICCIGAGYVGGPTCSVIAHMCPEIRVTVVDVNESRINAWNSPTLPIYEPGLKEVVESCRGKNLFFSTNIDDAIKEADLVFISVNTPTKTYGMGKGRAADLKYIEACARRIVQNSNGYKIVTEKSAVPVRAAESIRRIFDANTKPNLNLQVLSNPEFLAEGTAIKDLKNPDRVLIGGDETPEGQRAVQALCAVYEHWVPREKILTTNTWSSELSKLAANAFLAQRISSINSISALCEATGADVEEVATAIGMDQRIGNKFLKASVGFGGSCFQKDVLNLVYLCEALNLPEVARYWQQVIDMNDYQRRRFASRIIDSLFNTVTDKKIAILGFAFKKDTGDTRESSSIYISKYLMDEGAHLHIYDPKVPREQIVVDLSHPGVSEDDQVSRLVTISKDPYEACDGAHAVVICTEWDMFKELDYERIHKKMLKPAFIFDGRRVLDGLHNELQTIGFQIETIGKKV,soluble
8,SMQEKIMRELHVKPSIDPKQEIEDRVNFLKQYVKKTGAKGFVLGISGGQDSTLAGRLAQLAVESIREEGGDAQFIAVRLPHGTQQDEDDAQLALKFIKPDKSWKFDIKSTVSAFSDQYQQETGDQLTDFNKGNVKARTRMIAQYAIGGQEGLLVLGTDHAAEAVTGFFTKYGDGGADLLPLTGLTKRQGRTLLKELGAPERLYLKEPTADLLDEKPQQSDETELGISYDEIDDYLEGKEVSAKVSEALEKRYSMTEHKRQVPASMFDDWWK,soluble
9,SMSAGPWKMVVWDEDGFQGRRHEFTAECPSVLELGFETVRSLKVLSGAWVGFEHAGFQGQQYILERGEYPSWDAWGGNTAYPAERLTSFRPAACANHRDSRLTIFEQENFLGKKGELSDDYPSLQAMGWEGNEVGSFHVHSGAWVCSQFPGYRGFQYVLECDHHSGDYKHFREWGSHAPTFQVQSIRRIQQ,soluble
10,SMSDVTIVKEGWVQKRGEYIKNWRPRYFLLKTDGSFIGYKEKPQDVDLPYPLNNFSVAKCQLMKTERPKPNTFIIRCLQWTTVIERTFHVDTPEEREEWTEAIQAVADRLQRQEEERMN,soluble
11,SNAAQQVQQPVAQQQVQQPAQQNTNTANAGGNQNQAAPVQNQPVAQPTDIDGTYTGQDDGDRITLVVTGTTGTWTELESDGDQKVKQVTFDSANQRMIIGDDVKIYTVNGNQIVVDDMDRDPSDQIVLTK,soluble
12,SNAEMSYELAQHGRSTLPRELAVYALEGPFFFAAAETFERVMGSIQETPQILILRLKWVPFMDITGIQTLEEMIQSFHKRGIKVLISGANSRVSQKLVKAGIVKLVGEQNVYPVFEGALSAALTEIEAQP,soluble
13,SNALSASEERFQLAVSGASAGLWDWNPKTGAMYLSPHFKKIMGYEDHELPDEITGHRESIHPDDRARVLAALKAHLEHRDTYDVEYRVRTRSGDFRWIQSRGQALWNSAGEPYRMVGWIMDVTDRKRDEDALRVSREELRRL,soluble
14,SNAMADWVTGKVTKVQNWTDALFSLTVHAPINPFTAGQFTKLGLEIDGERVQRAYSYVNAPDNPNLEFYLVTVPQGKLSPRLAALKPGDEVQVVSDASGFFVLDEVPDCETLWMLATGTAIGPYLSILQYGQDVARFKNLVLVHAARFAADLSYLPLMLELQQRYEGKLRIQTVVSRENVPGSLTGRVPALIENGELEKAVGLPMDKETSHVMLCGNPQMVRDTQQLLKETRQMTKHLRRRPGHMTAEHYW,soluble
15,SNAMELEQKLNLLNDLIVREIVNPLPPPYKVGVDLGTADIVLVVTDQEGIPVAGALKWASVVKDGLVVDYIGAIQIVRELKAKVERLLGSELFQAATAIPPGTVGRNAEACGHVVAGAGLELVTLVDEPVAAARALGINDGIVVDIGGGTTGIAVIEKGKITATFDEPTGGTHLSLVLAGSYKIPFEEAETIKKDFSRHREIMRVVRPVIEKMALIVKEVIKNYDQTLPVYVVGGTAYLTGFSEEFSRFLGKEVQVPIHPLLVTPLGIALFG,soluble
16,SNAMIIADNIKQFHSIRNSLIKQQKIGFVPTMGALHNGHISLIKKAKSENDVVIVSIFVNPTQFNNPNDYQTYPNQLQQDIQILASLDVDVLFNPSEKDIYPDGNLLRIEPKLEIANILEGKSRPGHFSGMLTVVLKLLQITKPNNLYLGEKDYQQVMLIKQLVKDFFINTKIIVCPTQRQPSGLPLSSRNKNLTSTDIEIANKIYEILRQDDFSNLEELTNKINSTGAKLQYIQKLNNRIFLAFYIGKVRLIDNFLKETGPSC,soluble
